The subject of assay [1] is hippocampal primary neuronal cultures. Kind of assay: ATP and glutamate release in neuronal cultures. The conditions noted are these: peptide 1 mM; neuronal cultures without astrocytes. Format: cell-based, rat. The method, then: G.2. Neuronal cultures: Hippocampal neurons were obtained from hippocampus of E18 rats. Briefly, hippocampi were dissected as mentioned above for astrocyte cultures. Cells were seeded directly on poly-L-ornithine coated coverslips (1×10^5 cells/coverslip) in Neurobasal medium supplemented with penicillin (5 U/ml), streptomycin (5 μg/ml), B27 supplement and glutamax. Partial medium changes (¼) were done twice a week. H. Dye uptake: For single image visualization of dye uptake, astrocytes were bathed in recording solution [in mM: NaCl (148), KCl (5), CaCl2 (1.8), MgCl2 (1), glucose (5), HEPES (5), pH=7.4] containing 5 μM ethidium (Etd) (Sigma-Aldrich, St-Louis, Mo.), and fluorescence intensity was recorded for 10 min in selected cells (ROI, regions of interest). […] Metafluor software (version 6.2R5, Universal Imaging Co., Downingtown, Pa., USA) was used for off-line image analysis and fluorescence quantification.
I. Measurement of ATP and glutamate release induced by TAT-Cx43L2: Neurons were plated in multi well culture trays (10^6 cells/well/0.5 ml) and 48 h later were used for experiments. Extracellular ATP was measured by luciferin/luciferase bioluminescence assay kit (Sigma-Aldrich, St. Louis, Mo., USA). […]

For assay [2], the target named is T1, Cx43 gap junction channels (Rattus norvegicus, UniProt P08050).
T1 construct: endogenous in cells; host or cells: primary hippocampal astrocytes of newborn (PN1) rats
T1 sequence (P08050 whole entry): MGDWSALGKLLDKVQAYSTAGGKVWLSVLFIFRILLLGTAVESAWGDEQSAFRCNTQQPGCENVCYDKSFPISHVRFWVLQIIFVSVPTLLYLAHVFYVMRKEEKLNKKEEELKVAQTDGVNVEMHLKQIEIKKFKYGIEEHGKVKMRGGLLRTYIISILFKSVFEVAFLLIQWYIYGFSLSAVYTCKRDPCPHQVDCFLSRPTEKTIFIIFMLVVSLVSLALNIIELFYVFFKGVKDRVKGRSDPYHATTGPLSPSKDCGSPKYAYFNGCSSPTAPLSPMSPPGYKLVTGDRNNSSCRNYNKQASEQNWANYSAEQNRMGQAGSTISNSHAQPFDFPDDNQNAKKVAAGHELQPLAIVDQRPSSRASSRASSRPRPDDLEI
As to the kind of experiment: Lucifer yellow dye coupling in astroglial cultures. It counts as cell-based. The method, then:
F. Immunohistochemistry: Brain slices previously fixed in buffered 4% paraformaldehyde and maintained in 30% sucrose were mounted in gelatin coated glass slides. After rinsing with PBS, slices were blocked and permeabilized with 1% bovine serum albumin (BSA, Sigma-Aldrich), and 3% Triton X-100 in PBS for 1 h at room temperature. After rinsing again, sections were incubated overnight at 4° C. with the primary anti-Cx43 antibody (Sigma). Afterwards, sections were rinsed with PBS and incubated for 1 h at 37° C. with Alexa Fluor® 488-conjugated secondary antibody. To identify neurons and astrocytes, sections were incubated overnight at 4° C. with either monoclonal anti-MAP2 (M 4402, Sigma-Aldrich, St-Louis, Mo.) for neurons or polyclonal anti-GFAP (Sigma-Aldrich, St-Louis, Mo.) for astrocytes. Sections were washed and incubated for 1 h at 37° C. with Alexa Fluor® 568-conjugated secondary antibodies. Finally, slides were washed and permanently mounted using ProLong® (invitrogen). Staining specificity was assayed by incubation of sections in the absence of the primary antibody. Samples were examined using laser scanning confocal microscopy on a Fluoview FV1000 (Olympus). G. Primary Cell Cultures: G.1. Astrocyte cultures: Primary astrocyte cultures were prepared from hippocampus of newborn (PN1) rats. […]
J. Dye Coupling: Astrocytes plated on glass coverslips were bathed with recording medium (HCO3-free F-12 medium buffered with 10 mM HEPES, pH 7.2) and intercellular communication mediated by gap junctions was tested by evaluating the transfer to neighboring cells of Lucifer yellow (LY) (Sigma-Aldrich, St-Louis, Mo.) microinjected into one cell. […] The coupling index was calculated as the mean number of cells to which the dye spread. K. Data Analysis: Data were expressed as Mean+SD. Statistical differences were assessed by unpaired student's t-test (Mann-Whitney) and by one-way analysis of variance (ANOVA) for multiple comparisons, followed by Dunns post hoc test, and considered significant when p<0.05. p-values in the text are written as either <0.01% or <0.05%.

Assay [3] deals with Cx43 hemichannels (Homo sapiens, UniProt P17302). Particulars: cited from earlier work.
Sequence of Cx43 hemichannels (Homo sapiens, UniProt P17302) (P17302 whole entry): as the sequence (P08050 whole entry) above, with E124D, V164I, R243K, T251S, P253A, S257A, P263Q, A344S, V347L counted along it
In assay [4] the target is T2, Cx43 hemichannels (Rattus norvegicus, UniProt P08050).
T2 construct: endogenous in cells; host or cells: primary hippocampal astrocytes of newborn (PN1) rats
T2 sequence (P08050 whole entry): as the sequence (P08050 whole entry) above
Kind of assay: Ethidium (Etd) dye uptake in astrocytes. It counts as cell-based. The conditions noted are these: 10 min preincubation. As for the experimental part:
F. Immunohistochemistry: Brain slices previously fixed in buffered 4% paraformaldehyde and maintained in 30% sucrose were mounted in gelatin coated glass slides. After rinsing with PBS, slices were blocked and permeabilized with 1% bovine serum albumin (BSA, Sigma-Aldrich), and 3% Triton X-100 in PBS for 1 h at room temperature. After rinsing again, sections were incubated overnight at 4° C. with the primary anti-Cx43 antibody (Sigma). Afterwards, sections were rinsed with PBS and incubated for 1 h at 37° C. with Alexa Fluor® 488-conjugated secondary antibody. […]
G.2. […] H. Dye uptake: For single image visualization of dye uptake, astrocytes were bathed in recording solution [in mM: NaCl (148), KCl (5), CaCl2 (1.8), MgCl2 (1), glucose (5), HEPES (5), pH=7.4] containing 5 μM ethidium (Etd) (Sigma-Aldrich, St-Louis, Mo.), and fluorescence intensity was recorded for 10 min in selected cells (ROI, regions of interest). […] Metafluor software (version 6.2R5, Universal Imaging Co., Downingtown, Pa., USA) was used for off-line image analysis and fluorescence quantification.
For data representation, the average of two independent background fluorescence intensity measurements (FB, expressed as arbitrary units, AU) was subtracted from the fluorescence intensity in each cell (F1). […] Slopes of dye uptake were calculated using Microsoft Excel software and expressed as AU/min. […]

For assay [5], the target named is Cx43 gap junction channel (Homo sapiens, UniProt P17302). Particulars: cited from earlier work.
Sequence of Cx43 gap junction channel (P17302 whole entry): as the sequence (P08050 whole entry) above, with E124D, V164I, R243K, T251S, P253A, S257A, P263Q, A344S, V347L counted along it

Entries after “also recorded” stand apart in the source; their conditions may differ. No end group written: not given here.

On to “YGRKKRRQRRRDGANVDMHLKQIEIKKFKYGIEEHGK [TAT-Cx43L2, synthetic cell-permeable peptide corresponding to the Cx43L2 region (aa 119-144) of the cytoplasmic loop of Cx43]”, for which, in assay [1], the “ATP release in neuronal cultures” value is reported as “did not affect” and the “glutamate release in neuronal cultures” value is reported as “did not affect”. In assay [2] (1 mM, 10 min incubation, hippocampal astroglial cultures), the “astroglial coupling (intracellular transfer of LY)” value is recorded as “did not affect astroglial coupling”. Moreover, in assay [2] (n=3), the astrocyte coupling incidence entry was “had no effect on astrocyte coupling incidence” and the astrocyte coupling index entry is recorded as “had no effects on astrocyte coupling index”. Moreover, the “effect on Cx43 hemichannels, previously shown” value with Cx43 hemichannels [3] was “selectively block Cx43 hemichannels”. The “hemichannel activity (Etd uptake)” value with Cx43 hemichannels [4] (control conditions) is recorded as “blocked astrocyte hemichannel activity; also recorded: inhibited hemichannel activity”. Besides, the “hemichannel activity (Etd uptake)” value with Cx43 hemichannels [4] (divalent cation-free solution (DCFS)) is reported as “complete inhibition of hemichannel activity; also recorded: reduced Etd uptake to the same level as in control cells”. In addition, in assay [5], the “effect on Cx43 gap junction channel communication, previously shown” value is “without affecting Cx43 gap junction channel communication”.

Source of the values: patent US9879058B2, “Use of compounds that selectively modulate astrocytic release of substances through hemichannels of connexins and pannexins, without influencing gap junctions, for the treatment of psychiatric disorders” (Universidad Andres Bello, priority 2012, dated 2018).
